# Data taken from the supplement of paper PMC12042874.
# ± gives the uncertainty stated by the source.
# Experiment: amyloid nucleation score (Sup35N fusion, yeast selection) (log enrichment); library NNK3; higher = more nucleation; inactive = no reads after selection
# Outline: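 Random libraries were run with three technical output replicates. In each, psi-negative yeast expressing Sup35N fused to peptides of 20 random codons were induced 24 hours with 100 μM copper sulfate and grown 7 days at 30°C on medium lacking adenine and uracil, and input and output plasmid inserts were Illumina-sequenced. The nucleation score is the DiMSum log enrichment of output over input reads, centred on the mode score of non-aggregating sequences, and sequences under 100 input reads were excluded.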
row,Substance,amyloid nucleation score
1,ALASGVVVKLDICIVNNRMY,3.11 ± 0.073
2,FAKFAKSYNRPITVVLANCS,inactive
3,STETYWYSHLIINLVGSWF,inactive
4,FDFWEDRVCPIYNCLGCGKL,inactive
5,SNSVIW,inactive
6,GWGPRPSKNVCHIRCDMFFM,1.59 ± 0.13
7,YSRPMVTL,inactive
8,LADLNTTNIVIGQCCFFYRL,2.55 ± 0.076
9,SCYCN,inactive
10,TQAWSTL,inactive
11,VWNMSASIKLQRMSAF,inactive
12,CQRYQALSNCPYSATWGSDT,inactive
13,SFCECFQSSKSCKIWTVWIV,inactive
14,SGVSFDSIGVSVLQTHGGLR,inactive
15,VQGIPELALMLSRARGRGV,inactive
16,YKFEHVIFWNSFLNIKVEFS,1.56 ± 0.068
17,CDGNMVGSTAIPVSFFPFGR,inactive
18,LVIACTGYVSLCR,inactive
19,GSLKPMFDRSCFFNIKAIML,inactive
20,TLLRHVNNDGGSVSLGTMLA,inactive
21,SFKKPRPNYLPVFLVYLCNS,inactive
22,VLACSHWLMLSRTKYMMRIV,inactive
23,LGVHWNPFIWVSSDARQNSR,-0.089 ± 0.96

row,Substance,amyloid nucleation score
1,CMAIVATATRSGPVGRSLAK,0.508 ± 0.33
2,WCYDDGQA,inactive
3,AKSVSLHIPTCRYHLTYIAF,inactive
4,SKSQSSHHDSYSLWTM,inactive
5,RAWNWWGFVTFPERLMCSHT,inactive
6,EGKARGDH,inactive
7,IERGSDFLLHAMAYSFIGCL,-0.416 ± 1.1
8,TVPFTPIICESVFSD,inactive
9,NYALWFANI,inactive
10,RTAMVVDSYAKSFMSQASVL,inactive
11,NQFMGRVV,inactive
12,FVVIAYTEDTGDYRMVLTQW,inactive
13,HFYRLAYTSISWVYRSLGAE,inactive
14,CRHTLSRHDVTRCNSEVSSL,inactive
15,KSYLFWSLI,inactive
16,LSCHTKETFPDDG,inactive
17,VINKRRWTSNGNCILEVRHG,inactive
18,PASLTRDVTMCFQNRWDPLR,inactive
19,VYMNGIKVKDGLSTYWVPRE,-0.161 ± 0.69
20,FYKMVGVRYGC,inactive
21,DRLYGVSFVDF,inactive
22,LSLRCEFSSASSGCTSGQRR,inactive
23,TAKTRC,-0.272 ± 0.96

row,Substance,amyloid nucleation score
1,TADRQGYSFEC,inactive
2,KGVDQGISECFLAVWFGRMN,inactive
3,CFNNKVVNTWRICMVGLSLS,inactive
4,NRLWSYMGTVLFNPFWLVWR,inactive
5,QNCFHVY,inactive
6,PLRPKLFFERNGSGYRQNRA,inactive
7,KFLLTWK,inactive
8,PMKFQVFGVSQGVR,inactive
9,ATDKV,inactive
10,SPVSNYYDIKVVRDVSGCFT,inactive
11,KRYYYCHGSSL,inactive
12,MIGVSRLCNRRIF,inactive
13,DIEMY,inactive
14,DNCEDEDKNRRNVRLYRGWV,inactive
15,FRVKFIMCRHLSPNV,0.682 ± 0.2
16,RFGALVTLVFVCYHWNRPTA,0.753 ± 0.16
17,KCCEQRAIIPFVGRTRSHAT,inactive
18,LAWCVLSKPRDRYSGVTSTL,inactive
19,IMRGITEGWEPLVVES,inactive
20,TFSNNYPFSRWGCFSVLAV,inactive
21,KAVLWFGDIWRQVG,inactive
22,FHKKMCTWIDELVIAVQFRD,inactive
23,LFKDSIVLIGILYCMFNLHD,inactive

row,Substance,amyloid nucleation score
1,SFPWFDTYSLDVSWHISWRS,inactive
2,QLHNYARMKAQLLAVQV,inactive
3,MAFRETRWNFLLNKV,inactive
4,RLLVGFIWSWLGISYFTRFL,inactive
5,TENISFECYMEIY,inactive
6,VKIFS,inactive
7,DSQCLVWYIRFAYNERSHRK,inactive
8,DIVCNFVT,inactive
9,SYYTYVFTIVTPRKTNLWSG,0.64 ± 0.28
10,KNREVANYNDMYSDPILG,inactive
11,ENTAYWDLSGRLANQLGWRL,inactive
12,LPCWKFGLASHR,inactive
13,GQFML,inactive
14,ENIVCLAGKQHNHEMG,inactive
15,YVILGQDDHEKT,inactive
16,VQYNHLRVVSHDVNENGEPR,inactive
17,VMRALL,inactive
18,HMPVSIFSAFVYMTQNHAIG,1.75 ± 0.062
19,VEEYHNQ,0.858 ± 0.13
20,DLITSRSVLFVIVVL,inactive
21,DVMKVMDRINKRGDNSNYVC,inactive
22,CNQTSM,inactive
23,RFSFVTRFRYREQLPLVR,0.068 ± 0.82

row,Substance,amyloid nucleation score
1,YFYFVTHRDELGMSGPVTWA,inactive
2,RFWLLRRVVWEME,inactive
3,RKILVVFLSWFNFKVYSNSM,inactive
4,YPCEVLGCDAN,inactive
5,SVIIRRGTSQPNRVSWNKVK,inactive
6,SHHSHSNDVALGSSISF,inactive
7,IFTLCITGGV,inactive
8,VQVMETEMRSVVA,inactive
9,IFSFTLSLSFGVFLNMFSVD,inactive
10,PYLLMWSA,inactive
11,TLTRVRTRCTKWRFICNCPM,0.254 ± 0.34
12,LPRLYDFLGLVWVIA,inactive
13,SYSRLWTQMNCTKVVNSYC,inactive
14,LRFNVDAMFSTSVVRIQKCL,inactive
15,VMYGEVSDTYMAREICKFSA,inactive
16,DSSKFLLTCHLWCG,inactive
17,RQLVNCQGFVLYTREMDFEA,inactive
18,RIFRCVEIA,inactive
19,VNVTIGIYKRHRYLWSGIAM,inactive
20,PVTVFWVTMTSWYVNIRG,inactive
21,KLNSGEVFWQDTL,inactive
22,CMVNFS,inactive
23,KSVQKMAWTVRCELYLHTG,inactive

row,Substance,amyloid nucleation score
1,HFRDAVGWGFINGCHPAGSG,inactive
2,NTWILNC,inactive
3,CIFFWSALARLFFGLFNYPC,inactive
4,GVLCMFGSTWRMFMEVGLHV,inactive
5,GWSLGARSNYGLSTGQRGCA,inactive
6,GVCSLCKTLR,inactive
7,LCNWRAVDCDD,-0.151 ± 0.59
8,CVPHRRAIVGFFRGCVNAAS,inactive
9,LWSLYFDFVQGFGMYLSQSL,inactive
10,KIMNSKNVLRHFSLGQWLHG,inactive
11,RPRLYFLTSNLKTQCAVHNA,inactive
12,RCDCEFYTLKWQCEVYYRGR,inactive
13,CHLPQRP,0.989 ± 0.2
14,SDEFGDHEGCMLAFRASAVW,inactive
15,GSGIINDMGFRWIFFMWVMA,inactive
16,AAAMVKAMIDVITGKIPVAE,inactive
17,LSDYLGYDG,inactive
18,WDRSMMIAIDD,inactive
19,FVSIWEHNSIVRRCGVRLDR,inactive
20,PIGGLEFNMGFRYRVIRVTM,-0.436 ± 1.7
21,VLGVVT,inactive
22,PATMFI,inactive
23,SGLLSAVLDAAS,inactive

row,Substance,amyloid nucleation score
1,YCTRGNSTNLEYELECLVIF,inactive
2,FEECGVGPYVTKREATWFNG,inactive
3,WNLYCAFSPDYRLNIWTLQI,inactive
4,AKVQWAV,-0.106 ± 0.43
5,IAALNFSCRTLSL,inactive
6,CWVIVAYTI,inactive
7,YFKYTN,1.32 ± 0.15
8,WYGCVAWYVVKSMFYS,inactive
9,HMWLFKIQDLMLAHPITGSW,inactive
10,VYKWSNVLM,inactive
11,ESPAASMVLHRGRLVVCSLS,inactive
12,NPVLWVGRAF,inactive
13,INDLQTSPR,inactive
14,FGVYKLSWNP,0.044 ± 0.41
15,EYNPQLSRNSNDLYADELKE,inactive
16,VMYVVYFHELVYYR,inactive
17,NFYRCGVWHLNWYEYDVLRL,inactive
18,CRNSEKVWDPQRTVRALSRF,inactive
19,SLTSWGRMMSWVPCSKELRQ,inactive
20,GVLYDGVGDNHCCGSRKLVL,inactive
21,HELELRFLSGWSREFLELEG,inactive
22,LIARALFNSKWQDTSLSL,inactive
23,FDRSSGKRMVL,0.466 ± 0.21
